{
  "source": "paper PMC8009405",
  "about": "“POT1 stability and binding measured by fluorescence thermal shift assays”",
  "molecules": {"B1": {"name": "O1 (ssDNA)", "DNA": "TTAGGGTTAG"}, "B2": {"name": "O1c (negative control) (ssDNA)", "DNA": "CTAACCCTAA"}},
  "key": {"[1]": {"target": "T1, POT1 (POT1-N) (UniProt Q9NUX5)", "T1 sequence": "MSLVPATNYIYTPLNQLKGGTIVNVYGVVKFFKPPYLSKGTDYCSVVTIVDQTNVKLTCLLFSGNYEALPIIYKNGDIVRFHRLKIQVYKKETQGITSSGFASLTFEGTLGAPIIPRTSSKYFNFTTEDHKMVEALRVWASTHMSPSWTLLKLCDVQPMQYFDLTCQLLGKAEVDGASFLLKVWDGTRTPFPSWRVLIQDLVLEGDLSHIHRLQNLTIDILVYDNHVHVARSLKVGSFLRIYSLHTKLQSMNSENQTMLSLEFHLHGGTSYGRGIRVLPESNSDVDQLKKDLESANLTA", "assay": "FTSA (SYPRO Orange)", "conditions": "PNA backbone; printed as TTAGGGTTAG-O; 20 mM potassium phosphate, 180 mM KCl, pH 7.2; FTSA 20-99 °C, typically 5 uM POT1 and 50 uM DNA"}, "[2]": {"target": "T2, POT1 (POT1-N) (UniProt Q9NUX5 1-299)", "T2 sequence": "T1 sequence", "assay": "FTSA titration (SYPRO Orange), Model 3; dCp_b 0; binding entropy and unfolding enthalpy fitted; dG25 -57.9 kJ/mol; 20 mM potassium phosphate, 180 mM KCl, pH 7.2; FTSA 20-99 °C, typically 5 uM POT1 and 50 uM DNA", "conditions": "protein: recombinant; tags: C-terminal 6xHis; single strand"}, "[3]": {"target": "T2, POT1 (POT1-N)", "assay": "FTSA titration (SYPRO Orange), Model 2; dCp_b fixed at 0; binding enthalpy and entropy fitted; dG25 -57.7 kJ/mol; 20 mM potassium phosphate, 180 mM KCl, pH 7.2; FTSA 20-99 °C, typically 5 uM POT1 and 50 uM DNA", "conditions": "protein: recombinant; tags: C-terminal 6xHis; single strand"}, "[4]": {"target": "T2, POT1 (POT1-N)", "assay": "FTSA titration (SYPRO Orange), Model 1; dCp_b -4300 J/mol/K; binding enthalpy fixed at -139 kJ/mol; dG25 -66.1 kJ/mol; 20 mM potassium phosphate, 180 mM KCl, pH 7.2; FTSA 20-99 °C, typically 5 uM POT1 and 50 uM DNA", "conditions": "protein: recombinant; tags: C-terminal 6xHis; single strand"}, "[5]": {"target": "T2, POT1 (POT1-N)", "assay": "FTSA (SYPRO Orange); no appreciable Tm shift; 20 mM potassium phosphate, 180 mM KCl, pH 7.2; FTSA 20-99 °C, typically 5 uM POT1 and 50 uM DNA", "conditions": "protein: recombinant; tags: C-terminal 6xHis; single strand"}},
  "data": [
    {"molecule": "TTAGGGTTAG [PNA of O1]", "values": [
      {"measurement": "binding signal (°C (delta Tm))", "setting": "[1]", "result": 1}
    ]},
    {"molecule": "B1", "values": [
      {"measurement": "Ka", "setting": "[2]", "result": "1e+10", "unit": "M⁻¹"},
      {"measurement": "Ka", "setting": "[3]", "result": "1e+10", "unit": "M⁻¹"},
      {"measurement": "Ka", "setting": "[4]", "result": "4e+11", "unit": "M⁻¹"}
    ]},
    {"molecule": "B2", "values": [
      {"measurement": "binding result", "setting": "[5]", "result": "no binding"}
    ]}
  ]
}
